{"source": "paper PMC6121496", "origin": "cited, not measured here", "key": {"[1]": {"biological_target": "TEM-1 beta-lactamase (Escherichia coli) (UniProt P62593)", "sequence (P62593 24-286)": "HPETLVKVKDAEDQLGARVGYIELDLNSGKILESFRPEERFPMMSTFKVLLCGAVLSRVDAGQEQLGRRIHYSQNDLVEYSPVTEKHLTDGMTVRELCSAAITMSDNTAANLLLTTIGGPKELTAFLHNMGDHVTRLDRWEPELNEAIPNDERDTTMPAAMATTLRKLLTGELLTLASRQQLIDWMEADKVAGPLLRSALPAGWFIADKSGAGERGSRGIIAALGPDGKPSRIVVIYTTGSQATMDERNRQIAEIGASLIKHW"}, "[2]": {"biological_target": "PC1 beta-lactamase (Staphylococcus aureus) (UniProt P00807)", "sequence (P00807 25-281)": "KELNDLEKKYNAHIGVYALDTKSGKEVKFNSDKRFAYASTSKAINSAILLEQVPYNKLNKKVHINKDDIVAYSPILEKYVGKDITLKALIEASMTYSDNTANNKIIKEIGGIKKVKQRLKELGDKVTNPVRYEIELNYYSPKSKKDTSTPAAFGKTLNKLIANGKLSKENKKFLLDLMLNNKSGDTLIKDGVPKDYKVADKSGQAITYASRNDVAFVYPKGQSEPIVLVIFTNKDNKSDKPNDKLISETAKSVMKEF", "test": "stopped flow fluorometry, ITC"}, "[3]": {"biological_target": "TEM-1 beta-lactamase (Escherichia coli) (UniProt P62593)", "remark": "listed apart in the source"}, "[4]": {"biological_target": "TEM-1 beta-lactamase (Escherichia coli) (UniProt P62593)", "remark": "listed apart in the source"}, "[5]": {"biological_target": "TEM-1 beta-lactamase (Escherichia coli) (UniProt P62593)", "remark": "listed apart in the source"}, "[6]": {"biological_target": "TEM-1 beta-lactamase (Escherichia coli) (UniProt P62593)", "remark": "listed apart in the source"}, "[7]": {"biological_target": "TEM-1 beta-lactamase (Escherichia coli) (UniProt P62593)", "test": "SPR"}, "[8]": {"biological_target": "KPC-2 beta-lactamase (Klebsiella pneumoniae) (UniProt Q9F663)"}, "[9]": {"biological_target": "TEM-1 beta-lactamase (Escherichia coli) (UniProt P62593)", "test": "SPR", "remark": "listed apart in the source"}, "[10]": {"biological_target": "CTX-M14 beta-lactamase (Escherichia coli)", "test": "enzyme inhibition"}, "[11]": {"biological_target": "SME-1 beta-lactamase (Serratia marcescens) (UniProt P52682)", "sequence (P52682 28-294)": "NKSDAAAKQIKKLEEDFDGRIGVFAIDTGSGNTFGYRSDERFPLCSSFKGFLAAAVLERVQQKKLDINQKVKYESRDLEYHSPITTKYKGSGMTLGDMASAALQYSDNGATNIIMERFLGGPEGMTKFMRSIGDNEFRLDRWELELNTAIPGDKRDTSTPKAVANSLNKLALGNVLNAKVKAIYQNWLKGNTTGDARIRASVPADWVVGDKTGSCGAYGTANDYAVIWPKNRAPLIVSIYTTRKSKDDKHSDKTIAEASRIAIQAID", "test": "enzyme inhibition"}, "[12]": {"biological_target": "SHV-1 beta-lactamase (Klebsiella pneumoniae) (UniProt P0AD64)", "sequence (P0AD64 22-286)": "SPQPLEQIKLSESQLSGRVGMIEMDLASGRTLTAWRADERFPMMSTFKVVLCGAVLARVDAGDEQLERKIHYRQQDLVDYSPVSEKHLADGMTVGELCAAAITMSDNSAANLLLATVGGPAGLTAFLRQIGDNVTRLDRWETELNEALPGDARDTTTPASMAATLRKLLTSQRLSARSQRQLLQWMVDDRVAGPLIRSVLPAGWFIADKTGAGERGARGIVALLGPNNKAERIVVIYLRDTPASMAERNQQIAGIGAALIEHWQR", "test": "enzyme inhibition"}, "[13]": {"biological_target": "PC1 beta-lactamase (Staphylococcus aureus) (UniProt P00807)", "test": "enzyme inhibition"}, "[14]": {"biological_target": "KPC-3 beta-lactamase (Klebsiella pneumoniae) (UniProt Q9F663)", "test": "enzyme inhibition"}, "[15]": {"biological_target": "TEM-1 beta-lactamase (Escherichia coli) (UniProt P62593)", "remark": "listed apart in the source"}, "[16]": {"biological_target": "TEM-1 beta-lactamase (Escherichia coli) (UniProt P62593)", "remark": "listed apart in the source"}}, "note": "Where “and” joins values, the source holds several entries; their conditions need not be identical. Equal values may be shown once. Read-outs that look alike come from different tables or passages of the source."}
{"substance": "BLIP (from UniProt P35804)", "values": [{"measurement": "Ki", "setting": "[1]", "result": 0.4, "unit": "nM"}, {"measurement": "Kd", "setting": "[2]", "result": 380, "unit": "nM"}, {"measurement": "Kd", "setting": "[3]", "result": 0.4, "unit": "nM"}, {"measurement": "Kd", "setting": "[4]", "result": "1.3 nM and 1.7 nM"}, {"measurement": "Ki", "setting": "[5]", "result": 0.5, "unit": "nM"}, {"measurement": "Kd", "setting": "[6]", "result": 0.3, "unit": "nM"}, {"measurement": "Kd", "setting": "[7]", "result": 15, "unit": "nM"}, {"measurement": "Ki", "setting": "[8]", "result": 1.2, "unit": "nM"}, {"measurement": "Kd", "setting": "[9]", "result": 1.25, "unit": "nM"}, {"measurement": "Ki", "setting": "[10]", "result": 810, "unit": "nM"}, {"measurement": "Ki", "setting": "[11]", "result": 2.4, "unit": "nM"}, {"measurement": "Kd", "setting": "[12]", "result": 1250, "unit": "nM"}, {"measurement": "Ki", "setting": "[12]", "result": "1100 nM and 1130 nM"}, {"measurement": "Ki", "setting": "[13]", "result": 350, "unit": "nM"}, {"measurement": "Ki", "setting": "[14]", "result": 0.25, "unit": "nM"}]}
{"substance": "BLIP peptide 30-49 (from UniProt P35804)", "values": [{"measurement": "Ki", "setting": "[15]", "result": 352000, "unit": "nM"}]}
{"substance": "BLIP peptide (from UniProt P35804)", "values": [{"measurement": "Ki", "setting": "[16]", "result": 58000, "unit": "nM"}]}
